In patent US20250304996A1:

Legend:
Test in all cases: cell-based or functional assay
[1] = molecular target: SARS-CoV-2 S:B.1.1351+Δ19aa spike protein (B.1.351, encoded by pGM970, S-LV v04) (SARS-CoV-2) (UniProt P0DTC2)
[2] = molecular target: SARS-CoV-2 S:G614+Δ19aa spike protein (encoded by pGM907, S-LV v02) (SARS-CoV-2) (UniProt P0DTC2)
[3] = molecular target: SARS-CoV-2 S:B.1.1.7+Δ19aa spike protein (encoded by pGM965, S-LV v04) (SARS-CoV-2) (UniProt P0DTC2)

| Substance | MM43 IC50 (ug/mL), neutralisation of S-LV transduction [1] [µg/mL] | MM43 IC50 (ug/mL), neutralisation of S-LV transduction [2] [µg/mL] | R001 IC50 (ug/mL), neutralisation of S-LV transduction [3] [µg/mL] | R001 IC50 (ug/mL), neutralisation of S-LV transduction [2] [µg/mL] |
| --- | --- | --- | --- | --- |
| MM43 neutralising antibody (mouse IgG1, SARS-CoV-2 S neutralising antibody, Sino Biological, Catalogue No. 40591-MM43) | 0.5 | 0.8 | – | – |
| R001 neutralising antibody (rabbit IgG, SARS-CoV-2 S neutralising antibody, Sino Biological, Catalogue No. 40592-R001) | – | – | 0.32 | 0.06 |
